Measurements published in patent US20040161821A1 (COLD SPRING HARBOR LABORATORY, published 2004).
Where a chain is given by its changes, count along the chain named.

How the values were obtained:
[1] = molecular target: T1, E-cadherin (human, UniProt P12830 155-882); assay: amylose pull-down from pervanadate-treated T-47D lysate, anti-E-cadherin immunoblot
T1 construct: Endogenous protein in lysate of pervanadate-treated T-47D cells
T1 sequence (looked up): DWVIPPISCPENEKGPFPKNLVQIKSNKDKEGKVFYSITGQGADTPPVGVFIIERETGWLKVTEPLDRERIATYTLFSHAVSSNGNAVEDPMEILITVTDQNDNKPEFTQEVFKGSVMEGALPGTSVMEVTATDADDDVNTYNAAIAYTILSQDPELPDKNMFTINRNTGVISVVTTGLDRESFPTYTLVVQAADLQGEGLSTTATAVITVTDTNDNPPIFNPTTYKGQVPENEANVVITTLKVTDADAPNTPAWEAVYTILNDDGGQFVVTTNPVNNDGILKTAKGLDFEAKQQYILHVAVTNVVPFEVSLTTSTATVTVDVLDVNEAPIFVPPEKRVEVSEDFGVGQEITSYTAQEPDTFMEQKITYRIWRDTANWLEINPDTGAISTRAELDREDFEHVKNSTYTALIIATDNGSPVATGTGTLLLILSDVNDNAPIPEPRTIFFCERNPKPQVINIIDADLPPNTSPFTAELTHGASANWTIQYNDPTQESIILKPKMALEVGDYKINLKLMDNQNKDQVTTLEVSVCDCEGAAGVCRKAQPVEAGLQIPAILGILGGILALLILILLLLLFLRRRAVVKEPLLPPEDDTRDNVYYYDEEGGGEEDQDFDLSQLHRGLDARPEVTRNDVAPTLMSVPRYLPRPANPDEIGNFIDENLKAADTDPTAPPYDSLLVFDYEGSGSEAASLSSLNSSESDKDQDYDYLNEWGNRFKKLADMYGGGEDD
Protocol: (§1) Substrate trapping—Prior to lysis, T-47D and T-47D/Met cells were treated with 50 μM pervanadate for 20 minutes, whereas MDA-MB-231 cells were treated with 100 μM pervanadate for 20 minutes. Cells were rinsed with PBS and lysed in 1% NP-40 buffer (1% NP-40,150 mM NaCl, 20 mM HEPES pH7.5, 1 mM EDTA, 5 μg/ml aprotinin, 5 μg/ml leupeptin, 1 mM benzamidine). For trapping experiments in vitro, the lysis buffer also contained 5 mM iodoacetic acid to inhibit cellular PTPs irreversibly. After incubation on ice for 5 minutes, dithiothreitol was added to a final concentration of 10 mM to inactivate any unreacted iodoacetic acid. Insoluble material was removed by centrifugation. […] Lysates and fusion proteins were incubated at 4° C. for 2 hours and then washed extensively with 1% NP-40 buffer. Tyrosine phosphorylated proteins were immunoprecipitated using 0.1 mg T-47D cell lysate and a combination of 5 μl each of anti-phosphotyrosine antibodies PT-66 and 4G10. Lysate and antibodies were incubated at 4° C. for 2 hours and washed extensively with 1% NP-40 buffer.

[2] = molecular target: T2, Met, the HGF/SF receptor (Homo sapiens (Human), UniProt P08581 25-1390, tyrosine phosphorylated (cells treated with pervanadate); sites not stated); assay: amylose pull-down from pervanadate-treated T-47D/Met lysate, anti-Met immunoblot
T2 construct: also called HGF-R; HGF/SF receptor Met
Protocol: as §1

[3] = molecular target: T3, chimeric receptor CSF-MET, P07333
T3 chain: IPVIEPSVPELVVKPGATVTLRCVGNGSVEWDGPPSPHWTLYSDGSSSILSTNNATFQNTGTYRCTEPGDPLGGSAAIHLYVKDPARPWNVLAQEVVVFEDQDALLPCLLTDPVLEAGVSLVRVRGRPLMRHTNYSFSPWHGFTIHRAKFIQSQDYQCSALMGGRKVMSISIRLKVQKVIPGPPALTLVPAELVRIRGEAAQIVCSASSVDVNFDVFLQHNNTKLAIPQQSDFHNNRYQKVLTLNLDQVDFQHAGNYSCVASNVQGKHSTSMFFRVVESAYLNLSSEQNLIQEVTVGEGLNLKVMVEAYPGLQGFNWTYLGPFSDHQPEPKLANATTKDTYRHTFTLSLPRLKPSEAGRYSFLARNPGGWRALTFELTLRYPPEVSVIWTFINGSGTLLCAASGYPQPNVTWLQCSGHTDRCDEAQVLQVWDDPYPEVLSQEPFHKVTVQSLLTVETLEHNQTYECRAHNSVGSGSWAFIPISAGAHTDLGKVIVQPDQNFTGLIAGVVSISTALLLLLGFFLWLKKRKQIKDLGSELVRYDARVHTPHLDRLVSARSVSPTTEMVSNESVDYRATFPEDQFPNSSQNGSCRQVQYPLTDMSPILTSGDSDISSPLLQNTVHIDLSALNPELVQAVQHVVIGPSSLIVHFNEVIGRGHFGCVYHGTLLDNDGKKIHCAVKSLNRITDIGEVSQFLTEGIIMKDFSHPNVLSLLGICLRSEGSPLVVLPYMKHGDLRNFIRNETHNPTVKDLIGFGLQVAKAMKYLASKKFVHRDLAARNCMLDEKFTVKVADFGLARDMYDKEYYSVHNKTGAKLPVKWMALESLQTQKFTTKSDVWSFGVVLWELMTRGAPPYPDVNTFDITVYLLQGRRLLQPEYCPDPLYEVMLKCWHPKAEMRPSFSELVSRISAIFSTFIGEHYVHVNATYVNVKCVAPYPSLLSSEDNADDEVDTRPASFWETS

B1: MBP.DEP-1(DA) (enzyme, not shown: large carriers; small tags and cut ends)
chain: RKKRKDAKNNEVSFSQIKPKKSKLIRVENFEAYFKKQQADSNCGFAEEYEDLKLVGISQPKYAAELAENRGKNRYNNVLPYDISRVKLSVQTHSTDDYINANYMPGYHSKKDFIATQGPLPNTLKDFWRMVWEKNVYAIIMLTKCVEQGRTKCEEYWPSKQAQDYGDITVAMTSEIVLPEWTIRDFTVKNIQTSESHPLRQFHFTSWPAHGVPDTTDLLINFRYLVRDYMKQSPPESPILVHCSAGVGRTGTFIAIDRLIYQIENENTVDVYGIVYDLRMHRPLMVQTEDQYVFLNQCVLDIVRSQKDSKVDLIYQNTTAMTIYENLAPVTTFGKTNGYIA
notes: also called DEP-1 substrate-trapping mutant (DA); DEP-1(DA) cytoplasmic domain fusion protein
binding result [1]: no binding (tested: 1 µg fusion protein to 500 µg lysate)

B2: MBP.DEP-1 (enzyme, not shown: large carriers)
chain: B1 chain with A209D
notes: also called wild type DEP-1 (MBP-DEP-1); wildtype DEP-1 fusion protein
binding result [2]: no binding (tested: 1 µg fusion protein to 500 µg lysate)

B3: full length DEP-1(CS) (protein)
chain: AGGTPSPIPDPSVATVATGENGITQISSTAESFHKQNGTGTPQVETNTSEDGESSGANDSLRTPEQGSNGTDGASQKTPSSTGPSPVFDIKAVSISPTNVILTWKSNDTAASEYKYVVKHKMENEKTITVVHQPWCNITGLRPATSYVFSITPGIGNETWGDPRVIKVITEPIPVSDLRVALTGVRKAALSWSNGNGTASCRVLLESIGSHEELTQDSRLQVNISDLKPGVQYNINPYLLQSNKTKGDPLGTEGGLDASNTERSRAGSPTAPVHDESLVGPVDPSSGQQSRDTEVLLVGLEPGTRYNATVYSQAANGTEGQPQAIEFRTNAIQVFDVTAVNISATSLTLIWKVSDNESSSNYTYKIHVAGETDSSNLNVSEPRAVIPGLRSSTFYNITVCPVLGDIEGTPGFLQVHTPPVPVSDFRVTVVSTTEIGLAWSSHDAESFQMHITQEGAGNSRVEITTNQSIIIGGLFPGTKYCFEIVPKGPNGTEGASRTVCNRTVPSAVFDIHVVYVTTTEMWLDWKSPDGASEYVYHLVIESKHGSNHTSTYDKAITLQGLIPGTLYNITISPEVDHVWGDPNSTAQYTRPSNVSNIDVSTNTTAATLSWQNFDDASPTYSYCLLIEKAGNSSNATQVVTDIGITDATVTELIPGSSYTVEIFAQVGDGIKSLEPGRKSFCTDPASMASFDCEVVPKEPALVLKWTCPPGANAGFELEVSSGAWNNATHLESCSSENGTEYRTEVTYLNFSTSYNISITTVSCGKMAAPTRNTCTTGITDPPPPDGSPNITSVSHNSVKVKFSGFEASHGPIKAYAVILTTGEAGHPSADVLKYTYDDFKKGASDTYVTYLIRTEEKGRSQSLSEVLKYEIDVGNESTTLGYYNGKLEPLGSYRACVAGFTNITFHPQNKGLIDGAESYVSFSRYSDAVSLPQDPGVICGAVFGCIFGALVIVTVGGFIFWRKKRKDAKNNEVSFSQIKPKKSKLIRVENFEAYFKKQQADSNCGFAEEYEDLKLVGISQPKYAAELAENRGKNRYNNVLPYDISRVKLSVQTHSTDDYINANYMPGYHSKKDFIATQGPLPNTLKDFWRMVWEKNVYAIIMLTKCVEQGRTKCEEYWPSKQAQDYGDITVAMTSEIVLPEWTIRDFTVKNIQTSESHPLRQFHFTSWPDHGVPDTTDLLINFRYLVRDYMKQSPPESPILVHSSAGVGRTGTFIAIDRLIYQIENENTVDVYGIVYDLRMHRPLMVQTEDQYVFLNQCVLDIVRSQKDSKVDLIYQNTTAMTIYENLAPVTTFGKTNGYIA
phosphorylation of Met (phospho-specific antibodies) [3]: no effect on phosphorylation of Met was observed with the expression of DEP-1(CS) | phosphorylation of Tyr^1349 of Met (phospho-specific antibody) [3]: no change in the phosphorylation level of Tyr^1349 was observed in the presence of DEP-1(CS)

B4: full length wild type DEP-1 (protein)
chain: B3 chain with S1204C
phosphorylation of Tyr^1230, Tyr^1234 and Tyr^1235 of Met (phospho-specific antibodies) [3]: a gradual decrease in the level of phosphorylation of the activation loop tyrosine residues was observed with increasing expression of wild type DEP-1 | phosphorylation of Tyr^1349 of Met (phospho-specific antibody) [3]: Tyr^1349 was nearly completely dephosphorylated in the presence of low levels of DEP-1 | phosphorylation of Tyr^1365 of Met (phospho-specific antibody) [3]: Tyr^1365 was nearly completely dephosphorylated in the presence of low levels of DEP-1
